Results from patent publication US20260217843A1.

How the values were obtained:
[1] = molecular target: hOX40L added as soluble protein in cell assays (human) (UniProt P23510); assay: cell-based or functional assay
[2] = molecular target: Recombinant Human OX40L Protein, His Tag (Acro Cat. IL3-H52H4) (human) (UniProt P23510); assay: SPR (Biacore 8K), antibody captured, human OX40L injected, 1:1 fit
Recombinant Human OX40L Protein, His Tag (Acro Cat. IL3-H52H4) (human), sequence (P23510 51-183 limits assumed): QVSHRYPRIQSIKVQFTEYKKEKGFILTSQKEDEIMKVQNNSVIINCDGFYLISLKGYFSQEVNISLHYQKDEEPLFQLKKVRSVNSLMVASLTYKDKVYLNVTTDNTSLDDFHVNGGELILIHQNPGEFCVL

hOX40L added as soluble protein in cell assays (human), sequence (P23510 51-183 limits assumed): as above

B1: positive control based on the sequences of the anti-hOX40L antibody amlitelimab (antibody, IgG4, V domains shown)
VH: EVQLVESGGGLVQPGGSLRLSCAASGFTFSNYAMNWVRQAPGKGLEWVSTISGSGGATRYADSVKGRFTISRDNSRNTVYLQMNSLRVEDTAVFYCTKDRLIMATVRGPYYYGMDVWGQGTTVTVSS
VL: DIQMTQSPSSLSASVGDRVTITCRASQSISSYLNWYQQKPGKAPNLLIYAASSLQSGVPSRFSGSGSETDFTLTISSLQPEDFATYYCQQSHSVSFTFGPGTKVDIK
IC50, luminescence (RLU), hOX40 reporter cells with 50 ng/mL hOX40L [1]: 1170 pM
Mean IFNγ concentration, MLR + OX40L (1000 ng/ml); donor pairing 1; antibody 4 nM [1]: 201 pg/mL
Mean IFNγ concentration, MLR + OX40L (1000 ng/ml); donor pairing 1; antibody 20 nM [1]: 41.4 pg/mL
Mean IFNγ concentration, MLR + OX40L (1000 ng/ml); donor pairing 1; antibody 100 nM [1]: 145 pg/mL
Mean IFNγ concentration, MLR + OX40L (1000 ng/ml); donor pairing 3; antibody 4 nM [1]: 1050 pg/mL
Mean IFNγ concentration, MLR + OX40L (1000 ng/ml); donor pairing 3; antibody 20 nM [1]: 520 pg/mL
Mean IFNγ concentration, MLR + OX40L (1000 ng/ml); donor pairing 3; antibody 100 nM [1]: 75.4 pg/mL
Mean IFNγ concentration, MLR + OX40L (1000 ng/ml); donor pairing 4; antibody 4 nM [1]: 1170 pg/mL
Mean IFNγ concentration, MLR + OX40L (1000 ng/ml); donor pairing 4; antibody 20 nM [1]: 424 pg/mL
Mean IFNγ concentration, MLR + OX40L (1000 ng/ml); donor pairing 4; antibody 100 nM [1]: 161 pg/mL
Mean IFNγ concentration, MLR + OX40L (1000 ng/ml); donor pairing 5; antibody 4 nM [1]: 1350 pg/mL
Mean IFNγ concentration, MLR + OX40L (1000 ng/ml); donor pairing 5; antibody 20 nM [1]: 780 pg/mL
Mean IFNγ concentration, MLR + OX40L (1000 ng/ml); donor pairing 5; antibody 100 nM [1]: 878 pg/mL
Mean IFNγ concentration, MLR + OX40L (1000 ng/ml); donor pairing 6; antibody 4 nM [1]: 780 pg/mL
Mean IFNγ concentration, MLR + OX40L (1000 ng/ml); donor pairing 6; antibody 20 nM [1]: 279 pg/mL
Mean IFNγ concentration, MLR + OX40L (1000 ng/ml); donor pairing 6; antibody 100 nM [1]: 202 pg/mL
Mean IFNγ concentration, MLR + OX40L (1000 ng/ml); donor pairing 8; antibody 4 nM [1]: 17.3 pg/mL
Mean IFNγ concentration, MLR + OX40L (1000 ng/ml); donor pairing 8; antibody 20 nM [1]: 10.8 pg/mL
Mean IFNγ concentration, MLR + OX40L (1000 ng/ml); donor pairing 8; antibody 100 nM [1]: 92.5 pg/mL
Kd [2]: 71 pM
koff [2]: 0.000112 s⁻¹
kon [2]: 1.58e+06 M⁻¹ s⁻¹
